For one test, the target named is T1, 4H717-bN.
T1 chain: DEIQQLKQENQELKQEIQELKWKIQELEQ
Put plainly: two-hybrid library CCNG1.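 Note: natural log of median RNA to DNA barcode read ratio; higher means stronger binding.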

In another test the target is T2, 4H72-bN.
T2 chain: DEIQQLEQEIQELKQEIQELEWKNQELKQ
The experiment in a line: two-hybrid library CCNG1.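 Note: natural log of median RNA to DNA barcode read ratio; higher means stronger binding.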

In a further test the target is T3, 4H754-bN.
T3 chain: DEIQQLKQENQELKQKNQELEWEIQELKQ
The experiment in a line: two-hybrid library CCNG1.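 Note: natural log of median RNA to DNA barcode read ratio; higher means stronger binding.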

The target of the next test is T4, 4H797-bN.
T4 chain: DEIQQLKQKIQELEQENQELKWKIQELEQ
Put plainly: two-hybrid library CCNG1.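 Note: natural log of median RNA to DNA barcode read ratio; higher means stronger binding.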

In the next test the target is T5, 4H883-bN.
T5 chain: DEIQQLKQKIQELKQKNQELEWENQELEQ
The experiment in a line: two-hybrid library CCNG1.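 Note: natural log of median RNA to DNA barcode read ratio; higher means stronger binding.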

In another test the target is T6, 4H908-bN.
T6 chain: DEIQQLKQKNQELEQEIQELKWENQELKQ
The experiment in a line: two-hybrid library CCNG1.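 Note: natural log of median RNA to DNA barcode read ratio; higher means stronger binding.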

In the next test the target is T7, 4H918-bN.
T7 chain: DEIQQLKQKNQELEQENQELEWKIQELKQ
The experiment in a line: two-hybrid library CCNG1.

Another test concerns the target T8, 4H953-bN.
T8 chain: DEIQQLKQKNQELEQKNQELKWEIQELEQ
Put plainly: two-hybrid library CCNG1.

In a further test the target is T9, 4H967-bN.
T9 chain: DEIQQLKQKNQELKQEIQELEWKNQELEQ
The experiment in a line: two-hybrid library CCNG1.

Another test deals with T10, 4H3378-AA.
T10 chain: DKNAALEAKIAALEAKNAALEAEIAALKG
The experiment in a line: two-hybrid library CCmax.

Another test addresses T11, 4H340-AA.
T11 chain: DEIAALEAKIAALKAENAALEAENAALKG
The experiment in a line: two-hybrid library CCmax. Conditions: mean of both orientations.

The next test addresses T12, 4H3413-AA.
T12 chain: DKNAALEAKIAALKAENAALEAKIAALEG
The experiment in a line: two-hybrid library CCmax. Conditions: mean of both orientations.

A further test addresses T13, 4H3588-AA.
T13 chain: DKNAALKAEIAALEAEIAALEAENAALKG
Put plainly: two-hybrid library CCmax. Conditions: mean of both orientations.

The next test deals with T14, 4H3606-AA.
T14 chain: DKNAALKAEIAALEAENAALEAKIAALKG
Put plainly: two-hybrid library CCmax. As to conditions: mean of both orientations.

Another test has as its target T15, 4H3631-AA.
T15 chain: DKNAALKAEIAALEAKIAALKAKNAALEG
The experiment in a line: two-hybrid library CCmax. Conditions: mean of both orientations.

In another test the target is T16, 4H3697-AA.
T16 chain: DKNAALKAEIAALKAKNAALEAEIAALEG
The experiment in a line: two-hybrid library CCmax. As to conditions: mean of both orientations.

A further test has as its target T17, 4H3718-AA.
T17 chain: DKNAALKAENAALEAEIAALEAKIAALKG
Put plainly: two-hybrid library CCmax. As to conditions: mean of both orientations.

The target of a further test is T18, 4H384-AA.
T18 chain: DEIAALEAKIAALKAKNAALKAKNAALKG
Put plainly: two-hybrid library CCmax. Conditions: mean of both orientations.

In a further test the target is T19, 4H3865-AA.
T19 chain: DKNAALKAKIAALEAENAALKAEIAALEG
The experiment in a line: two-hybrid library CCmax. Conditions: mean of both orientations.

For another test, the target named is T20, 4H697-AA.
T20 chain: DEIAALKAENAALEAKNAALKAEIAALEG
Put plainly: two-hybrid library CCmax. Conditions: mean of both orientations.

The target in the next test is T21, 4H982-AA.
T21 chain: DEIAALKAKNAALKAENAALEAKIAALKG
Put plainly: two-hybrid library CCmax. Conditions: mean of both orientations.

The next test addresses T22, 4H568-bN.
T22 chain: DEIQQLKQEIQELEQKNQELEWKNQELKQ
The experiment in a line: two-hybrid library CCNG1.

A further test deals with T23, 4H607-bN.
T23 chain: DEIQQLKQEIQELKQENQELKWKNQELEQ
The experiment in a line: two-hybrid library CCNG1.

The target of another test is T24, 4H687-bN.
T24 chain: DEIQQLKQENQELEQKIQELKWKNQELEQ
Put plainly: two-hybrid library CCNG1.

In another test the target is T25, 4H32-AA.
T25 chain: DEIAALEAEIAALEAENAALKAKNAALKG
The experiment in a line: two-hybrid library CCmax.

For a further test, the target named is T26, APC7099-AA.
T26 chain: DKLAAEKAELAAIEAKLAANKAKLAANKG
Put plainly: two-hybrid library CCmax.

A further test deals with T27, APC8191-AA.
T27 chain: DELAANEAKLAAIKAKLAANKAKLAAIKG
The experiment in a line: two-hybrid library CCmax. As to conditions: mean of both orientations.

The target in another test is T28, APC8910-AA.
T28 chain: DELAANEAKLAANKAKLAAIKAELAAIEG
The experiment in a line: two-hybrid library CCmax. As to conditions: mean of both orientations.

The target in another test is T29, APC9096-AA.
T29 chain: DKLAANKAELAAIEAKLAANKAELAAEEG
Put plainly: two-hybrid library CCmax. As to conditions: mean of both orientations.

A further test addresses T30, APC9319-AA.
T30 chain: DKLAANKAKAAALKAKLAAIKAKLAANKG
Put plainly: two-hybrid library CCmax. As to conditions: mean of both orientations.

The target of the next test is T31, 4H3595-AA.
T31 chain: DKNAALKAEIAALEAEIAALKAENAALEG
The experiment in a line: two-hybrid library CCmax.

Another test deals with T32, 4H3629-AA.
T32 chain: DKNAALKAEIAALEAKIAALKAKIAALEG
Put plainly: two-hybrid library CCmax. As to conditions: mean of both orientations.

For another test, the target named is T33, 4H3782-AA.
T33 chain: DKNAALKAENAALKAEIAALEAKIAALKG
Put plainly: two-hybrid library CCmax. As to conditions: mean of both orientations.

A further test concerns the target T34, 4H380-AA.
T34 chain: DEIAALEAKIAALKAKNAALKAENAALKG
The experiment in a line: two-hybrid library CCmax. Conditions: mean of both orientations.

The next test deals with T35, 4H3939-AA.
T35 chain: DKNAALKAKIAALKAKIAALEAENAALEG
Put plainly: two-hybrid library CCmax. Conditions: mean of both orientations.

Another test concerns the target T36, 4H3969-AA.
T36 chain: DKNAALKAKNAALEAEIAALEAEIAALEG
The experiment in a line: two-hybrid library CCmax. Conditions: mean of both orientations.

The target of another test is T37, 4H446-AA.
T37 chain: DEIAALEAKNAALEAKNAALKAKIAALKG
Put plainly: two-hybrid library CCmax. As to conditions: mean of both orientations.

A further test deals with T38, 4H464-AA.
T38 chain: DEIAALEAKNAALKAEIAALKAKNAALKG
The experiment in a line: two-hybrid library CCmax. As to conditions: mean of both orientations.

Another test concerns the target T39, 4H483-AA.
T39 chain: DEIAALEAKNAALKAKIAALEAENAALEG
The experiment in a line: two-hybrid library CCmax. As to conditions: mean of both orientations.

For another test, the target named is T40, 4H63-AA.
T40 chain: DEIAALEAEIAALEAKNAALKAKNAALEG
The experiment in a line: two-hybrid library CCmax. As to conditions: mean of both orientations.

In another test the target is T41, 4H481-AA.
T41 chain: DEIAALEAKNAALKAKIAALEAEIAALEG
Put plainly: two-hybrid library CCmax.

A further test addresses T42, 4H55-AA.
T42 chain: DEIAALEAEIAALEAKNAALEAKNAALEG
Put plainly: two-hybrid library CCmax.

A further test addresses T43, 4H662-AA.
T43 chain: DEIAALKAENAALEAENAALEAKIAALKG
Put plainly: two-hybrid library CCmax. Conditions: mean of both orientations.

Like-named read-outs stand apart in the source and are kept apart here.

Regarding DEIQQLKQENQELKQEIQELKWKIQELEQ [4H717-bN], the interaction score is 1.4 with 4H717-bN; -1.73 with 4H72-bN; -0.997 with 4H754-bN; -1.95 with 4H797-bN; -0.0445 with 4H883-bN; -0.377 with 4H908-bN. Also, the interaction score is -1.09 with 4H918-bN, -1.57 with 4H953-bN and -0.445 with 4H967-bN.
For the molecule DKNAALEAKIAALEAKNAALEAEIAALKG [4H3378-AA], the interaction score with 4H3378-AA was 1.2; with 4H340-AA, -1.86; in the test with 4H3413-AA, -1.24; with 4H3588-AA, -1.31; with 4H3606-AA it was -0.302; in the test with 4H3631-AA, -1.65. In addition, the interaction score with 4H3697-AA was -1.32; with 4H3718-AA it was -1.79; with 4H384-AA, -1.9; with 4H3865-AA, -0.877; in the test with 4H697-AA it was -2.13; with 4H982-AA it was -1.5.
As to DEIQQLKQEIQELEQKNQELEWKNQELKQ [4H568-bN], the interaction score was 0.761 in the test with 4H568-bN; -0.164 with 4H607-bN; 0.312 with 4H687-bN; -0.157 with 4H717-bN; -0.806 in the test with 4H72-bN; 0.0731 with 4H754-bN. The interaction score with 4H797-bN was 0; with 4H883-bN, 1.1; with 4H908-bN, 1.08; with 4H918-bN it was -0.124; in the test with 4H953-bN it was -1.93; in the test with 4H967-bN, -0.452.
Consider DEIAALEAEIAALEAENAALKAKNAALKG [4H32-AA], for which the interaction score with 4H32-AA is 0.0438; with 4H3378-AA (mean of both orientations) it was -1.84; with 4H340-AA it was 1.89; with 4H3413-AA, 0.814; in the test with 4H3588-AA it was -0.686; in the test with 4H3606-AA, -0.292. The interaction score with 4H3631-AA was -0.675; with 4H3697-AA, -0.509; in the test with 4H3718-AA it was -0.924; with 4H384-AA, 1.2; with 4H3865-AA, 1.4; with 4H697-AA it was -1.89. In addition, the interaction score in the test with 4H982-AA is -0.329.
As to DKLAAEKAELAAIEAKLAANKAKLAANKG [APC7099-AA], the interaction score was -1.86 with APC7099-AA; -1.62 in the test with APC8191-AA; -2.07 in the test with APC8910-AA; -1.55 with APC9096-AA; -2.06 with APC9319-AA.
For the molecule DEIQQLKQENQELEQKIQELKWKNQELEQ [4H687-bN], the interaction score with 4H687-bN is -0.549; in the test with 4H717-bN it was 0.114; with 4H72-bN, -1.56; with 4H754-bN, 0.422; with 4H797-bN, 0.169; with 4H883-bN it was 0.227. Further, the interaction score in the test with 4H908-bN was -0.555; with 4H918-bN, -0.686; in the test with 4H953-bN it was -1.1; with 4H967-bN, 0.425.
Consider DKNAALKAEIAALEAEIAALKAENAALEG [4H3595-AA], for which the interaction score with 4H3595-AA is -0.866; with 4H3629-AA, 0.754; with 4H3782-AA, -1.1; with 4H380-AA, 0.0185; in the test with 4H3939-AA, -0.576; with 4H3969-AA it was -1.4. The interaction score was -1.59 with 4H446-AA, 1.2 with 4H464-AA, -1.8 with 4H483-AA and -0.914 with 4H63-AA.
For the molecule DEIAALEAKNAALKAKIAALEAEIAALEG [4H481-AA], the interaction score was 0.282 with 4H481-AA, -1.31 in the test with 4H55-AA and 1.83 with 4H662-AA.

These data come from PMC10397247.
